Data reported in US20120107299.

Assays:
pSer380 PTEN = biological target: T1, pSer380 PTEN
T1 chain: EPDHYRYSDTTDSDPENE

[1] = biological target: T2, pSer380/pThr382/pThr 383 PTEN
T2 chain: EPDHYRYSDTTDSDPENE

pThr382 PTEN = biological target: T3, pThr382 PTEN
T3 chain: EPDHYRYSDTTDSDPENE

pThr382/pThr 383 PTEN = biological target: T4, pThr382/pThr 383 PTEN
T4 chain: EPDHYRYSDTTDSDPENE

pThr383 PTEN = biological target: T5, pThr383 PTEN
T5 chain: EPDHYRYSDTTDSDPENE

B1: GST (Glutathione S-Transferase)-NDRG2 fusion protein (protein)
chain: MAELQEVQITEEKPLLPGQTPEAAKTHSVETPYGSVTFTVYGTPKPKRPAILTYHDVGLNYKSCFQPLFQFEDMQEIIQNFVRVHVDAPGMEEGAPVFPLGYQYPSLDQLADMIPCVLQYLNFSTIIGVGVGAGAYILARYALNHPDTVEGLVLINIDPNAKGWMDWAAHKLTGLTSSIPEMILGHLFSQEELSGNSELIQKYRNIITHAPNLDNIELYWNSYNNRRDLNFERGGDITLRCPVMLVVGDQAPHEDAVVECNSKLDPTQTSFLKMADSGGQPQLTQPGKLTEAFKYFLQGMGYMASSCMTRLSRSRTASLTSAASVDGNRSRSRTLSQSSESGTLSSGPPGHTMEVSC
- in vitro dephosphorylation of PTEN, Western blot with anti-PTEN antibodies specific to each phosphorylation (FLAG-PTEN, P60484): dephosphorylation effects were recognized in BAP used as a positive control, and in GST-NDRG2
- phosphorylation status of PTEN protein by various PTEN phosphorylation antibodies after the reaction (FLAG-PTEN, P60484): only S380, T382, and T383 are dephosphorylated by mixing with NDRG2, and S370 and S385 are not altered
- dephosphorylation of phosphorylated peptides (DOTBLOT method) (pSer380 PTEN): cannot dephosphorylate the peptide wherein only S380 or only T383 is phosphorylated
- dot blot phosphatase assay, detection with rabbit anti-Phospho-PTEN (Ser380/Thr382/Thr383) polyclonal antibodies [1]: signals disappeared in the phosphorylated peptides at Thr382, Thr382/Thr383, and Ser380/Thr382/Thr383 by the reaction with NDRG2 protein
- dot blot phosphatase assay, detection with rabbit anti-phospho-PTEN (Ser380) polyclonal antibodies [1]: a signal disappeared in the phosphorylated peptide of Ser380/Thr382/Thr383 by the reaction with NDRG2 protein
- production level of the phosphoric acid groups (phosphopeptide phosphatase assay, BIOMOL GREEN) [1]: an increase in the production level of the phosphoric acid groups in the Thr382/Thr383 peptide and Ser380/Thr382/Thr383 peptide was recognized compared to the phosphorylation of Thr382 alone
- dephosphorylation activity (phosphopeptide phosphatase assay, free phosphate by BIOMOL GREEN) (pThr382 PTEN): NDRG2 showed a dephosphorylation activity against the peptide including the phosphorylation at Thr382 of PTEN
- dot blot phosphatase assay, detection with rabbit anti-Phospho-PTEN (Ser380/Thr382/Thr383) polyclonal antibodies (pThr382 PTEN): signals disappeared in the phosphorylated peptides at Thr382, Thr382/Thr383, and Ser380/Thr382/Thr383 by the reaction with NDRG2 protein
- dot blot phosphatase assay, detection with rabbit anti-Phospho-PTEN (Ser380/Thr382/Thr383) polyclonal antibodies (pThr382/pThr 383 PTEN): signals disappeared in the phosphorylated peptides at Thr382, Thr382/Thr383, and Ser380/Thr382/Thr383 by the reaction with NDRG2 protein
- production level of the phosphoric acid groups (phosphopeptide phosphatase assay, BIOMOL GREEN) (pThr382/pThr 383 PTEN): an increase in the production level of the phosphoric acid groups in the Thr382/Thr383 peptide and Ser380/Thr382/Thr383 peptide was recognized compared to the phosphorylation of Thr382 alone
- dephosphorylation of phosphorylated peptides (DOTBLOT method) (pThr383 PTEN): cannot dephosphorylate the peptide wherein only S380 or only T383 is phosphorylated
